From IntAct's records for PubMed 34948388

B1: Multifunctional methyltransferase subunit TRM112-like protein (Homo sapiens), Q9UI30 (parent)
chain: MKLLTHNLLSSHVRGVGSRGFPLRLQATEVRICPVEFNPNFVARMIPKVEWSAFLEAADNLRLIQVPKGPVEGYEENEEFLRTMHHLLLEVEVIEGTLQCPESGRMFPISRGIPNMLLSEEETES
partner: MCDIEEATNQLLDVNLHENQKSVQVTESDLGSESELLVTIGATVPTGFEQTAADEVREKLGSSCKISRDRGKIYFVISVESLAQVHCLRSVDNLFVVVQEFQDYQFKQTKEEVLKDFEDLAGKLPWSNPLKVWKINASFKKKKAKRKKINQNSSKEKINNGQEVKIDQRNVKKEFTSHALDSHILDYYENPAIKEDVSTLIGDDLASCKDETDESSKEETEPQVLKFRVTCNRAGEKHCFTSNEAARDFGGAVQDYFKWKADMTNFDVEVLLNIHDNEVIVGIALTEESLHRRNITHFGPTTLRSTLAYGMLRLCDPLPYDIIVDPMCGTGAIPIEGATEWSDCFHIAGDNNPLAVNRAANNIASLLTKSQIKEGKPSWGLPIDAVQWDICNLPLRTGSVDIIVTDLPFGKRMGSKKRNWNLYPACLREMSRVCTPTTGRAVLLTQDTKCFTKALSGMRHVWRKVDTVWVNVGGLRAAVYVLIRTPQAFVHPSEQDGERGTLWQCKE
B2: Multifunctional methyltransferase subunit TRM112-like protein (Homo sapiens), Q9UI30 (parent)
chain: B1 chain
partner: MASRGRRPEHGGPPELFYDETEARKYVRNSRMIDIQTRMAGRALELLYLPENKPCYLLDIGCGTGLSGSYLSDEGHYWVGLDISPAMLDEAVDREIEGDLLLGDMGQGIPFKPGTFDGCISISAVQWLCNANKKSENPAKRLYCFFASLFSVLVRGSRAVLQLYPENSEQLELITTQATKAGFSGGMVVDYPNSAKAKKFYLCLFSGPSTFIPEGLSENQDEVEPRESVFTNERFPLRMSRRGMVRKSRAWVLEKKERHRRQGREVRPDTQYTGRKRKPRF

Variants of: B1
Settings: with thum3_human THUMPD3, Q9BV44

Row | Variant | effect of a mutation on the interaction
1 | MKLLTHNLLFSHVRGVGSRGFPLRLQATEVRICPVEFNPNFVARMIPKVEWSAFLEAADNLRLIQVPKGPVEGYEENEEFLRTMHHLLLEVEVIEGTLQCPESGRMFPISRGIPNMLLSEEETES [S10F] | with no effect
2 | MKLLAHNLLSSHVRGVGSRGFPLRLQATEVRICPVEFNPNFVARMIPKVEWSAFLEAADNLRLIQVPKGPVEGYEENEEFLRTMHHLLLEVEVIEGTLQCPESGRMFPISRGIPNMLLSEEETES [T5A] | disrupting interaction strength
3 | MKLLTHNLLSSHVRGVGSRGFPLRLQATEVRICPVEFNPNFVARMIPKVEWSAFLEAADNLRLIQVPKGPVEGYEENEEFLRTMHHLLLEVAVIEGTLQCPESGRMFPISRGIPNMLLSEEETES [E92A] | disrupting interaction strength
4 | MKLLTHNLLSSHVRGVGSRGFPLRLQATEVRICPVEFNPNFVARMIPKVEWSAFLEAADNLRLIQVPKGPVEGYEENEEFLRTMHHLLLEVEVIEGTLQCPESGRMAPISRGIPNMLLSEEETES [F107A] | disrupting interaction strength
5 | MKLLTHNWLSSHVRGVGSRGFPLRLQATEVRICPVEFNPNFVARMIPKVEWSAFLEAADNLRLIQVPKGPVEGYEENEEFLRTMHHLLLEVEVIEGTLQCPESGRMFPISRGIPNMLLSEEETES [L8W] | disrupting interaction strength
6 | MKLLTHNLLSSHVRGVGSRGFPLRLQATEVRICPVEFNPNFVARMIPKVEWSAFLEAADNLRLIQVPKGPVEGYEENEEFLRTMHHLLLEVEVIEGTLQCPESGRMFPISRGAPNMLLSEEETES [I113A] | disrupting interaction strength

The next lines start with the values.

Row | effect of a mutation on the interaction | Variant
7 | with no effect | MKLLTHNLLSSHVRGVGSRGFPLRLQATEVRICPVEFNPNFVARMIPKVAWSAFLEAADNLRLIQVPKGPVEGYEENEEFLRTMHHLLLEVEVIEGTLQCPESGRMFPISRGIPNMLLSEEETES [E50A]
8 | disrupting interaction strength | MKLLTHNLLSSHVRGVGSRGFPLRLQATEVRICPVEFNPNFVARAIPKVEWSAFLEAADNLRLIQVPKGPVEGYEENEEFLRTMHHLLLEVEVIEGTLQCPESGRMFPISRGIPNMLLSEEETES [M45A]
9 | disrupting interaction strength | MKLLTHNLLSSHVRGVGSRGFPLRLQATEVRICPVEFNPNFVARMIPAVEWSAFLEAADNLRLIQVPKGPVEGYEENEEFLRTMHHLLLEVEVIEGTLQCPESGRMFPISRGIPNMLLSEEETES [K48A]
10 | disrupting interaction strength | MKLLTHNLLSSHVRGVGSRGFPLRLQATEVRICPVEFNPNFVARMIPAVEWSAFLEAADNLRLIQVPKGPVEGYEENEEFLRTMHHLLLEVAVIEGTLQCPESGRMFPISRGIPNMLLSEEETES [K48A;E92A]

Variants of: B2
Settings: with bud23_human BUD23, O43709

Row | Variant | effect of a mutation on the interaction
11 | MKLLTHNLLSSHVRGVGSRGFPLRLQATEVRICPVEFNPNFVARMIPKVAWSAFLEAADNLRLIQVPKGPVEGYEENEEFLRTMHHLLLEVEVIEGTLQCPESGRMFPISRGIPNMLLSEEETES [E50A] | with no effect
12 | MKLLTHNLLSSHVRGVGSRGFPLRLQATEVRICPVEFNPNFVARMIPKVEWSAFLEAADNLRLIQVPKGPVEGYEENEEFLRTMHHLLLEVEVIEGTLQCPESGRMFPISRGAPNMLLSEEETES [I113A] | with no effect
13 | MKLLTHNLLSSHVRGVGSRGFPLRLQATEVRICPVEFNPNFVARMIPKVEWSAFLEAADNLRLIQVPKGPVEGYEENEEFLRTMHHLLLEVAVIEGTLQCPESGRMFPISRGIPNMLLSEEETES [E92A] | with no effect
14 | MKLLTHNLLSSHVRGVGSRGFPLRLQATEVRICPVEFNPNFVARAIPKVEWSAFLEAADNLRLIQVPKGPVEGYEENEEFLRTMHHLLLEVEVIEGTLQCPESGRMFPISRGIPNMLLSEEETES [M45A] | with no effect
15 | MKLLTHNLLSSHVRGVGSRGFPLRLQATEVRICPVEFNPNFVARMIPAVEWSAFLEAADNLRLIQVPKGPVEGYEENEEFLRTMHHLLLEVAVIEGTLQCPESGRMFPISRGIPNMLLSEEETES [K48A;E92A] | with no effect
16 | MKLLAHNLLSSHVRGVGSRGFPLRLQATEVRICPVEFNPNFVARMIPKVEWSAFLEAADNLRLIQVPKGPVEGYEENEEFLRTMHHLLLEVEVIEGTLQCPESGRMFPISRGIPNMLLSEEETES [T5A] | decreasing interaction strength
17 | MKLLTHNLLSSHVRGVGSRGFPLRLQATEVRICPVEFNPNFVARMIPAVEWSAFLEAADNLRLIQVPKGPVEGYEENEEFLRTMHHLLLEVEVIEGTLQCPESGRMFPISRGIPNMLLSEEETES [K48A] | with no effect

Other lines, results leading:

Row | effect of a mutation on the interaction | Variant
18 | with no effect | MKLLTHNWLSSHVRGVGSRGFPLRLQATEVRICPVEFNPNFVARMIPKVEWSAFLEAADNLRLIQVPKGPVEGYEENEEFLRTMHHLLLEVEVIEGTLQCPESGRMFPISRGIPNMLLSEEETES [L8W]
19 | disrupting interaction strength | MKLLTHNLLSSHVRGVGSRGFPLRLQATEVRICPVEFNPNFVARMIPKVEWSAFLEAADNLRLIQVPKGPVEGYEENEEFLRTMHHLLLEVEVIEGTLQCPESGRMAPISRGIPNMLLSEEETES [F107A]
